One assay concerns the target T1, CD147-Tag fusion protein (human, UniProt P35613-2 22-205).
T1 sequence (looked up): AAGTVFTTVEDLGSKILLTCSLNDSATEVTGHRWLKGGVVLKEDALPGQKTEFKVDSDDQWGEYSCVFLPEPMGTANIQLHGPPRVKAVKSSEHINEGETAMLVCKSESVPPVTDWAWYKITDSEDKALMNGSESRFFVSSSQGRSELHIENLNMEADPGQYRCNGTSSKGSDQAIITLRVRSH

The next assay has as its target T2, CD147-his fusion protein (human, UniProt P35613 22-205).
T2 sequence: T1 sequence (looked up)

For assay [1], the target named is CD147 on Vero E6 host cells. As to the kind of experiment: cell-based or functional assay.
Assay [2] deals with T3, cyclophilin A (CyPA) (UniProt P62937 1-165).
T3 sequence (P62937 whole entry): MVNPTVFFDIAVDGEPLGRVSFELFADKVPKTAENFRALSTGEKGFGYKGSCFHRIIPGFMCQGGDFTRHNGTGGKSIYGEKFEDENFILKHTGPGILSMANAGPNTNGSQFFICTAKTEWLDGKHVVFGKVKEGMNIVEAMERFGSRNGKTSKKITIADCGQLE
For assay [3], the target named is T3, cyclophilin A (CyPA). As to the kind of experiment: ELISA; format not described.

This is an account of results in WO2021180110A1 (dated 2021).

B1: anti-human BASIGIN humanized antibody (antibody, V domains shown)
VH: EVQLVESGGGLVQPGGSLRLSCAASGFTFSNFWMNWVRQAPGKGLEWVSEIRLKSNNYATHYAESVKGRFTISRDDSKNTLYLQMNSLKTEDTAVYYCTSYDYEYWGQGTLVTVSA
VL: DIQMTQSPSTLSASVGDRVTLSCKASENVGTYVSWYQQKPGKAPKLLIYGASNRYTGVPSRFTGSGSGTDFTLTISSLQPEDFATYYCGQSYSYPFTFGSGTKLEIK
As to B1, the values for the concentration for half-maximal inhibition (IC50) in the assay with CD147-Tag fusion protein and with CD147-his fusion protein were 1.28 µg/mL and 16.4 µg/mL, respectively. Also, in assay [1], the “EC50 of inhibition of cytopathic effect of COVID-19 virus on Vero E6 cells” value came to 36 µg/mL.

B2: CD147 (receptor, human, UniProt P35613-2 22-205, looked up)
chain: T1 sequence (looked up)
notes: also called BASIGIN; EMMPRIN
As for B2, in the assay with cyclophilin A (CyPA) [2], the Kd is about 8.7 µM and the koff is 0.0008 s⁻¹. The molecule also showed an EC50 with cyclophilin A (CyPA) [3] of 135 µg/mL.
